From patent US12091454B2, “Humanized anti-human neurotensin receptor 1 antibodies and their uses” (DEVELOPMENT CENTER FOR BIOTECHNOLOGY, priority 2022, dated 2024)

What was measured:
FaDu cells = assay: In vitro cytotoxicity study (CELLTITER-GLO); type: cell-based, human; conditions: 72 hours treatment, cell viability, read-out: Relative IC50
Experimental: Human head and neck cancer cell line FaDu was respectively grown in RPMI-1640 medium (ATCC® modification) supplemented with 10% fetal bovine serum. The FaDu cell lines were maintained in an atmosphere of 5% CO2 in a humidified 37° C. incubator. The day before treatment, cells were collected and seeded into 96-well plates (4,000 cells per well). Each treatment was performed in eight triplicate data points. After the treatment of 72 hours, cell viability was assessed by CELLTITER-GLO® kit (PROMEGA®) according to the manufacturer's instruction. At the end of the incubation, luminescence was measured using a SpectraMax i3x Multi Mode Detection Platform (MOLECULAR DEVICES®). Compound cytotoxicity was evaluated in comparison to cells treated with 0.05% PBS (ADCs) or 0.05% DMSO (toxic payload). IC50 values were calculated by fitting viability data with a four-parameter logistic equation using GRAPHPAD® prism 5.0 software.

[1] = tested on: FaDu human head and neck cancer xenograft; assay: Xenograft model of anti-NTSR1 ADCs (head and neck cancer); type: in vivo, male NOD SCID mice
Experimental: The aim of this study was to evaluate the in vivo anti-tumor efficacy of αNTSR1 (AKT2) 4seco-DUBA, αNTSR1 (AKT2 Hu/Hu) 4seco-DUBA, and αNTSR1 (AKT2 Hu/Hd) 4seco-DUBA in FaDu human head and neck cancer xenograft model in male NOD SCID mice.
Formulations respectively comprising test article αNTSR1 (AKT2) 4seco-DUBA, test article αNTSR1 (AKT2 Hu/Hu) 4seco-DUBA, test article αNTSR1 (AKT2 Hu/Hd) 4seco-DUBA, and Hu IgG were formulated by diluting the stock with a 25 mM sodium citrate buffer (pH 6.5). […]
The FaDu cells were maintained in vitro as a monolayer culture in RPMI-1640 medium supplemented with 10% fetal bovine serum at 37° C. in an atmosphere of 5% CO2 in air. The tumor cells were routinely sub-cultured twice weekly by trypsin-EDTA treatment. The cells growing in an exponential growth phase were harvested and counted for tumor inoculation.
Male NOD SCID mice at age of 6-7 weeks were quarantined for one week. Five mice were housed in each cage. All animals were hosted in the animal facility with a 12-h light/12-h dark cycle at 19-25° C. Animals had free access to rodent pellet foods and water ad libitum.
FaDu cells were subcutaneously (SC) implanted (4×10^6 cells in 1:1 PBS/matrigel mixture at 0.1 mL per mouse) into the right flank of male NOD SCID mice. When the average tumor volume had reached about 200 mm^3, the mice were randomly divided into 7 groups (N=6 per group). Each of Hu IgG, αNTSR1 (AKT2) 4seco-DUBA (5 mg/kg), αNTSR1 (AKT2 Hu/Hu) 4seco-DUBA (5 mg/kg), and αNTSR1 (AKT2 Hu/Hd) 4seco-DUBA (5 mg/kg) was intravenously administered twice weekly for 3 weeks.
The tumor volumes, body weights, mortality, and signs of overt toxicity were monitored and recorded three times weekly for 28 days. Tumor volumes (mm^3) were measured three times per week using calipers and calculated according to the formula: Tumor Volume=(w^2×l)/2, where w=width and l=length in diameter (mm) of the tumor. The percentages of tumor growth inhibition (TGI) were calculated using the following formula: % TGI=[1−(T/C)]×100%, where T and C represent the mean tumor volumes of the treatment group and the control group, respectively. A TGI (%) value≥58% was considered as indicating significant anti-tumor activity. Animals were weighed three times weekly until the completion of the study.

B1: αNTSR1 (AKT2 Hu/Hd) 4seco-DUBA: antibody-drug conjugate of humanized antibody AKT2 HuHd with seco-DUBA payload (conjugate)
heavy chain: QVQLVQSGAEVKKPGASVKVSCKASGYAFTSSWIHWVRQAPGQGLEWMGQIRPNSGNTYYNEKFKVRVTMTRDTSTSTVYMELSSLRSEDTAVYYCARYHYGFDYWGQGTLVTVSS
light chain: DIQMTQSPSSLSASVGDRVTITCRSSQSIVHSNGNTYLEWYQQKPGKAPKLLIYKVSNRFSGVPSRFSGSGSGTDFTLTISSLQPEDFATYYCFQGAHLPWTFGQGTKVEIK
IC50 (FaDu cells): 55 nM
FaDu tumor growth ([1]; 5 mg/kg, Day 10 to Day 17): significantly reduced FaDu tumor growth
TGI % (1-T/C) Day 0 ([1]; 5 mpk, IV, BIW × 3, Day 0): 0.0%
TGI % (1-T/C) Day 3 ([1]; 5 mpk, IV, BIW × 3, Day 3): 6.6%
TGI % (1-T/C) Day 5 ([1]; 5 mpk, IV, BIW × 3, Day 5): 29.8%
TGI % (1-T/C) Day 7 ([1]; 5 mpk, IV, BIW × 3, Day 7): 56.1%
TGI % (1-T/C) Day 10 ([1]; 5 mpk, IV, BIW × 3, Day 10): 60.9%
TGI % (1-T/C) Day 12 ([1]; 5 mpk, IV, BIW × 3, Day 12): 62.7%
TGI % (1-T/C) Day 14 ([1]; 5 mpk, IV, BIW × 3, Day 14): 65.2%
TGI % (1-T/C) Day 17 ([1]; 5 mpk, IV, BIW × 3, Day 17): 76.6%
